This note sets out measurements from article PMC4845985.

In test [1] the target is human ribosomes (complex not specified) (human (endogenous in HeLa)). Briefly: fluorescence polarisation; yeast eIF5A with human ribosomes by anisotropy change; data not shown. In general terms: In fluorescence polarisation assays a small probe gives low polarisation when free and higher when bound to something large.
Test [2] addresses fluorescein-labelled hypusine-containing human eIF5A^C22A,C38A,C73A,C129A,T142C (human) (UniProt P63241). Briefly: fluorescence polarisation; ribosomal complex titrated into 5-10 nM eIF5A-fl; 20 mM Hepes pH 7.5, 100 mM KOAc, 2.5 mM Mg(OAc)2, 1 mM DTT, 15 μM BSA; 30°C 30 min.
For test [3] the target is unchanged. Briefly: fluorescence polarisation; yeast 80S titrated into eIF5A-fl in the presence of saturating eEF2 (1 μM); same buffer, 30°C.
For test [4], the target named is human 60S ribosomal subunit (human (endogenous in HeLa)). Briefly: fluorescence polarisation; competition: non-labeled eIF5A titrated (from 5 μM) into preformed ribosome-eIF5A-fl, ribosome 50 nM; same buffer, 30°C 30 min; apparent Ki.
In test [5] the target is human reconstituted 80S ribosome (40S+60S) (human (endogenous in HeLa)). The test is described as above.
For test [6], the target named is yeast pre-assembled 80S ribosome (yeast) (UniProt P26321). The description is as above.
Test [7] concerns the target human reconstituted 80S ribosome with Met-tRNAi^Met (40S+60S+Met-tRNAi^Met) (human (endogenous in HeLa)). The test is described as above.
Test [8] deals with yeast pre-assembled 80S ribosome (yeast) (UniProt P26321). Briefly: fluorescence polarisation; competition: non-labeled yeast eIF5A titrated into preformed 80S-eIF5A-fl in the presence of saturating eEF2.

“yeast eIF5A tested on human ribosomes (data not shown) (from UniProt P23301 1-157) (natural protein)” yielded an affinity (constant not named) in test [1] of over 2000 nM.

Take human 40S ribosomal subunit (complex): the Kd – broadly, the concentration at which binding is half-saturated – in test [2] is over 1700 nM.

Consider “human reconstituted 80S ribosome (40S+60S) (complex)”, for which the dissociation constant (Kd) in test [2] is 13 nM.

With “yeast pre-assembled 80S ribosome (from UniProt P26321 1-297) (complex)”, the Kd in the presence of saturating eEF2 in test [3] is 41 nM. For the same molecule, the equilibrium dissociation constant (Kd) in test [2] is 10 nM.

Take “non-hypusine-containing human eIF5A^T142C (lysine-containing) (from UniProt P63241 1-154) (natural protein)”: in test [4], the Ki is 385 nM.

Molecule “human reconstituted 80S ribosome with Met-tRNAi^Met (40S+60S+Met-tRNAi^Met) (complex)” gave a Kd in test [2] of 7 nM.

In test [2], human 60S ribosomal subunit (complex) registered a Kd of 128 nM.

Consider “non-labeled hypusine-containing human eIF5A (from UniProt P63241 1-154) (natural protein)”, for which the Ki in test [5] is 12 nM; in test [6], under 5 nM; in test [4], 16 nM; in test [7], under 5 nM.

B1: yeast eIF5A^C39A (natural protein)
chain: MSDEEHTFETADAGSSATYPMQCSALRKNGFVVIKSRPAKIVDMSTSKTGKHGHAKVHLVAIDIFTGKKLEDLSPSTHNMEVPVVKRNEYQLLDIDDGFLSLMNMDGDTKDDVKAPEGELGDSLQTAFDEGKDLMVTIISAMGEEAAISFKEAARTD
modifications: hypusine (co-expressed with the modifying enzymes; position not given)
B1: the Ki in test [6] was 9 nM. The Ki in the presence of saturating eEF2 in test [8] was found to be 51 nM.

B2: yeast eIF5A^C39A,K56A (natural protein)
chain: MSDEEHTFETADAGSSATYPMQCSALRKNGFVVIKSRPAKIVDMSTSKTGKHGHAAVHLVAIDIFTGKKLEDLSPSTHNMEVPVVKRNEYQLLDIDDGFLSLMNMDGDTKDDVKAPEGELGDSLQTAFDEGKDLMVTIISAMGEEAAISFKEAARTD
modifications: hypusine-containing (position not given)
As for B2, the Ki in test [6] came out at 189 nM. In addition, in test [8], the Ki in the presence of saturating eEF2 came out at 454 nM.

B3: yeast eIF5A^C39A,Q22H,L93F (natural protein)
chain: MSDEEHTFETADAGSSATYPMHCSALRKNGFVVIKSRPAKIVDMSTSKTGKHGHAKVHLVAIDIFTGKKLEDLSPSTHNMEVPVVKRNEYQLFDIDDGFLSLMNMDGDTKDDVKAPEGELGDSLQTAFDEGKDLMVTIISAMGEEAAISFKEAARTD
modifications: hypusine-containing (position not given)
With B3, in test [6], the Ki came out at 569 nM. Besides, the Ki in the presence of saturating eEF2 in test [8] is 539 nM.
